Data as given in patent US9719113B2 (priority 2014, dated 2017).

Columns and labels:
QH4 strain = conditions: SA added to cell cultures at 0-1000 mg/L; QH4 cells
Excerpt: All data points are reported as mean±s.d. from three independent experiments. […] All data points are reported as mean±s.d. from two independent experiments.

[1] = Screening SMOs in vivo (conversion of SA to catechol by whole cells); format: cell-based; conditions: E. coli BW25113 carrying pZE12-luc expression vector, 2 mM SA, 37° C., catechol formation rate
Method: To evaluate the activity of enzymes converting SA to catechol, E. coli BW25113 was transformed with the expression vectors pZE-ppbenABCD, pZE-paantABC, pZE-pfantABC and pZE-NahG, separately. The resultant transformants were inoculated in 3 ml LB liquid medium containing 100 μg/ml of ampicillin and grown aerobically at 37° C. The overnight cultures were inoculated into 20 ml fresh LB medium and left to grow at 37° C. till OD600 reached 0.6 and then induced with 0.25 mM of IPTG at 37° C. for additional 3 h. Then the cells were harvested, and re-suspended in M9Y medium (OD600=2.1-2.7). SA was added into the cell suspension to a final concentration of 2 mM. The flasks were incubated with shaking at 37° C. for 10 min for the SMO encoded by nahG^opt and 1 h for ppBenABCD, paAntABC, and pfAntABC. Samples were taken by removing cell pellets and the product (catechol) concentrations were measured with HPLC. The in vivo activity was expressed as μM/min/OD.
Following the reconstitution and optimization of an SA biosynthetic pathway, our subsequent effort was focused on constructing the SA degradation pathway. SMO catalyzes the first enzymatic step of SA degradation, and thus it is of great importance to have an efficient SMO available for the pathway assembly. […] A putative SMO (encoded by nahG) was identified from the genome of P. putida DOT-T1E. […]

[2] = In vitro SMO enzyme assay; format: biochemical, P. putida DOT-T1E; conditions: purified His-tagged enzyme 0.97 nM
Method: (A) Kinetic parameters of the SMO. The Km and Vmax values were estimated with OriginPro8 through non-linear regression of the Michaelis-Menten equation. The protein concentration [E] of the SMO in the reaction systems was 0.97 nM. The kcat value was calculated according to the formula kcat=Vmax/[E]. […] (B) Conversion of SA to MA using the wild type E. coli strain carrying pZE-NC. […] Error bars are defined as s.d.
To express and purify the enzyme, E. coli BL21 Star (DE3) was transformed with the expression plasmid pET-NahG. A fresh transformant was inoculated in 3 ml LB medium containing 100 μg/ml of ampicillin and grown aerobically at 37° C. Overnight cultures were inoculated into 50 ml fresh LB medium and left to grow at 37° C. till OD600 reached 0.6 and then induced at 30° C. with 0.5 mM IPTG for another 3 h. Cells were then harvested and lysed by French Press. The recombinant protein with an N-terminal multi-histidine tag was purified using His-Spin protein miniprep kit (ZYMO […]). The enzyme concentration was measured using BCA kit (Pierce Chemicals). The standard enzyme assay was performed by making an assay mixture containing 500 μM NADH, 10 μM FAD, 0.97 nM purified enzyme, and SA as the substrate. The final volume was adjusted to 1 ml with Kpi buffer (20 mM, pH=7.0). […] The reaction rates were calculated by measuring the formation of catechol via HPLC. […]

Molecule | SA concentration that completely inhibited the cell proliferation (QH4 strain) | In vivo activity [1] | In vivo activity ([1]; listed as SMO encoded by nahG^opt) | Km ([2]; SA 0 to 100 μM, 500 μM NADH, 10 μM FAD, pH 7.0, 37° C.) | kcat ([2]; substrate SA, kcat=Vmax/[E])
O=C(O)c1ccccc1O [SA, salicylic acid] | 1000 mg/L |  |  |  | 
nahG^opt: salicylate 1-monoxygenase (SMO) from P. putida DOT-T1E, encoded by codon-optimized gene nahG^opt (protein, listed as Escherichia coli) MQNSTSALNVSIIGGGIAGVALALDLCRHAHLNVQLFEAAPAFGEVGAGVSFGANAVRAIAGLGIAEPYGKIADSNPAPWQDIWFEWRNGRDAKYLGCSVAEGVGQSSVHRADFLDALASQLPDGIAQFGKRAQRVEQDGEQVRVTFTDGSEHRCDLLIGADGIKSSIRDHVLQGLNQPLASPRFSGTCAYRGLIDSQQLREAYRARGVDEHLIDVPQMYLGLDGHILTFPVKQGRLINVVAFISDRSQPNPVWPSDTPWVRNATQAEMLAAFEGWDDAAQVLLECIPTPSLWALHDLAELPGYVHGRVGLIGDAAHAMLPHQGAGAGQGLEDAWLLARLLEDPKVLDKRPQAVLDAYDAVRRPRACRVQRTSFEAGELYEFRDPAVLADEERLGKVLAERFDWLWNHDMQEDLLQARELLGLRAQAA |  | 54.78 ± 1.65 μM/min/OD | 54.78 μM/min/OD | 4.37 µM | 96.56 s⁻¹
